Earlier results as cited in publication PMC9274133.
Each block holds one substance with its values, some of them ahead of it.

Experiments:
gp130 (Homo sapiens) = gp130 (Homo sapiens) (UniProt P40189)
IL-6R (Homo sapiens) = IL-6R (Homo sapiens) (UniProt P08887)
IL-11R (Homo sapiens) = IL-11R (Homo sapiens) (UniProt Q14626)
Sequence of IL-11R (Homo sapiens) (Q14626 23-370): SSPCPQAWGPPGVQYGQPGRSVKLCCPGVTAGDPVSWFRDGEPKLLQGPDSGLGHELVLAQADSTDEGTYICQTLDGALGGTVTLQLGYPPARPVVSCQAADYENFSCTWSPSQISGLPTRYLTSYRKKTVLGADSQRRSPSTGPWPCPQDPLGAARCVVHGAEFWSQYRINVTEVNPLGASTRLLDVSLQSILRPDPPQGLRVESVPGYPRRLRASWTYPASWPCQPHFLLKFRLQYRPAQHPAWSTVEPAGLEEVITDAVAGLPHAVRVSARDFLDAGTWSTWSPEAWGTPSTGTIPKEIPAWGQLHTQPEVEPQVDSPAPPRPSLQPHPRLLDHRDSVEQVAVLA

Sequence of IL-11 (P20809 22-199): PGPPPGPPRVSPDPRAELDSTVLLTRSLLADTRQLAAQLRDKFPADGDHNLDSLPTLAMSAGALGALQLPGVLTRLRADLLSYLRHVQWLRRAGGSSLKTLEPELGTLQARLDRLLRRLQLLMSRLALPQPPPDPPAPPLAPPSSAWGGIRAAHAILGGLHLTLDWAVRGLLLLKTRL
Sequence of gp130 (Homo sapiens) (P40189 23-619): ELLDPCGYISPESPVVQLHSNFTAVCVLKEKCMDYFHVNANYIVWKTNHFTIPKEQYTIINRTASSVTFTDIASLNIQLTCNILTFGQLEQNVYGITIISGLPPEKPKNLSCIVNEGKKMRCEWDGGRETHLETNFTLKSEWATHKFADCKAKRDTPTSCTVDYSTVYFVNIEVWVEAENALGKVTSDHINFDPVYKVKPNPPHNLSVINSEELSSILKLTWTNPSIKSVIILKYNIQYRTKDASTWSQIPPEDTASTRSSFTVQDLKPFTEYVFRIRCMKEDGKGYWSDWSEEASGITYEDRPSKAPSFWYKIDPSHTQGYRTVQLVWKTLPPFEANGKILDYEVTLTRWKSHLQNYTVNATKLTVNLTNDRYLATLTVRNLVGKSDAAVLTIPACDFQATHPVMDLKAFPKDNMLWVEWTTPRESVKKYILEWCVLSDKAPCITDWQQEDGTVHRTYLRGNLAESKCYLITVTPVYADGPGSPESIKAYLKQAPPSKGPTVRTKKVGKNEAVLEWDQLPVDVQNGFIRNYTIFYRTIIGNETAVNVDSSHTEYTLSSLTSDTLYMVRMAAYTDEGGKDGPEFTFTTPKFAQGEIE
Sequence of IL-6R (Homo sapiens) (P08887 20-355): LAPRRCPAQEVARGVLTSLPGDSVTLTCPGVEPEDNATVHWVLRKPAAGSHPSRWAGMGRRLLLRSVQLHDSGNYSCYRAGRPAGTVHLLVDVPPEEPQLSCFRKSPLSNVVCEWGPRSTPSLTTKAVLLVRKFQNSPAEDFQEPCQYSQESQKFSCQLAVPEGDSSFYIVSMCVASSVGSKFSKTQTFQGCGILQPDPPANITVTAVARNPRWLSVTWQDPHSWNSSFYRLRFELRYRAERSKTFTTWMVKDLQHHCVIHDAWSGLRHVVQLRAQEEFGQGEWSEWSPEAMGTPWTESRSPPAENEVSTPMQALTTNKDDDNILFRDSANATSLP

Kd (gp130 (Homo sapiens)): 0.01 nM
Substance: IL-6/IL-6R complex (from UniProt P05231)

Kd (IL-6R (Homo sapiens)): 1 nM
Substance: IL-6 (from UniProt P05231)

Kd (IL-11R (Homo sapiens)): 10 nM
Substance: IL-11 (from UniProt P20809)
